Source: FireProtDB (doi:10.1021/acs.biochem.7b01284)
“And” between values parts separate entries of the source, which are not always exact repeats. Equal entries are not always repeated.

B1: Geranylgeranylglyceryl phosphate synthase, O26652 (parent)
chain: MKVEDYFHDILRERKIHLTLIDPEEQTPEEAVEIARAAIRGGTDGIMLGGSTTDSSELDNTARALRENIDVPIILFPGNTTGVSRYADAIFFMSLLNSTNPYWIIGAQALGAATVKKMGIEALPMGYLVVEPGGTVGWVGDTKPVPRNKPDIAAAYAMAAEFLGMRLFYLEAGSGAPEHVPEEMIALVKRCTDQILIVGGGIRSGEDAARVAGAGADVVVTGTVVENSDNVEDKIREIVEGMGSV

Variants of: B1
Settings: Methanothermobacter thermautotrophicus (strain ATCC 29096 / DSM 1053 / JCM 10044 / NBRC 100330 / Delta H); pH 7.5; Thermal; DSC; potassium phosphate buffer; reversible: no; structure 4MM1; whole UniProt chain shown

Variant | Tm [°C] | unfolding enthalpy (calorimetric)
A159E | 64 | 173 kcal/mol
D54R | – | 187 kcal/mol and 88 kcal/mol
Y102A | – | 104 kcal/mol and 108 kcal/mol
W138A | – | 106 kcal/mol and 78.2 kcal/mol
K143A | – | 100 kcal/mol

Same assay, conditions: Methanothermobacter thermautotrophicus (strain ATCC 29096 / DSM 1053 / JCM 10044 / NBRC 100330 / Delta H); pH 7.5; Thermal; DSF; potassium phosphate buffer; reversible: no; structure 4MM1; whole UniProt chain shown

Variant | Tm [°C]
R85E | 53.9
D54R | 52.2
K143A | 66
